Assay results taken from IntAct's records for PubMed 21505799.

B1: E3 ubiquitin-protein ligase NHLRC1 (Homo sapiens), Q6VVB1 (parent)
chain: MAAEASESGPALHELMREAEISLLECKVCFEKFGHRQQRRPRNLSCGHVVCLACVAALAHPRTLALECPFCRRACRGCDTSDCLPVLHLIELLGSALRQSPAAHRAAPSAPGALTCHHTFGGWGTLVNPTGLALCPKTGRVVVVHDGRRRVKIFDSGGGCAHQFGEKGDAAQDIRYPVDVTITNDCHVVVTDAGDRSIKVFDFFGQIKLVIGGQFSLPWGVETTPQNGIVVTDAEAGSLHLLDVDFAEGVLRRTERLQAHLCNPRGVAVSWLTGAIAVLEHPLALGTGVCSTRVKVFSSSMQLVGQVDTFGLSLYFPSKITASAVTFDHQGNVIVADTSGPAILCLGKPEEFPVPKPMVTHGLSHPVALTFTKENSLLVLDTASHSIKVYKVDWG
partner: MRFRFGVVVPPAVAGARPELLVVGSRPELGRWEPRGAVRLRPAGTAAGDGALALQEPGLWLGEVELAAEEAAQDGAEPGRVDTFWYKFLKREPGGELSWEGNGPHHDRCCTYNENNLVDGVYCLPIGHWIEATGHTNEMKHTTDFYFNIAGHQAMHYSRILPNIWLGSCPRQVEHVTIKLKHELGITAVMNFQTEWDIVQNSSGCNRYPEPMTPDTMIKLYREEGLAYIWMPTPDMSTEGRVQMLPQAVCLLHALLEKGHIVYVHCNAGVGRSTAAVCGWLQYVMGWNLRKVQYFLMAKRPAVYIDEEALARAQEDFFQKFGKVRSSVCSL

Variants of: B1
Settings: with epm2a_human EPM2A

| effect of a mutation on the interaction | Variant |
| --- | --- |
| disrupting interaction | MAAEASESGPALHELMREAEISLLECKVCFEKFGHRQQRRPRNLSCGHVVCLACVAALAHPRTLALECPFCRRACRGCDTSDCLPVLHLIELLGSALRQSPAAHRAAPSAPGALTCHHTFGGWGTLVNPTGLALCPKTGRVVVVHDGRRRVKIFDSGGGCAHQFGEKGDAAQDIRYPVDVTITNDCHVVVTDAGDRSIKVFDFFGQIKLVIGGQFSLPWGVETTPQNGIVVTDAEAGSLHLLDVDFAEGVLRRTERLQAHPCNPRGVAVSWLTGAIAVLEHPLALGTGVCSTRVKVFSSSMQLVGQVDTFGLSLYFPSKITASAVTFDHQGNVIVADTSGPAILCLGKPEEFPVPKPMVTHGLSHPVALTFTKENSLLVLDTASHSIKVYKVDWG [L261P] |
| decreasing interaction | MAAEASESGPALHELMREAEISLLECKVCFEKFGHRQQRRPRNLSCGHVVCLACVAALAHPRTLALECPFCRRACRGCDTSDCLPVLHLIELLGSALRQSPAAHRAAPSAPGALTCHHTFGGWGTLVNPTGLALCPKTGRVVVVHNGRRRVKIFDSGGGCAHQFGEKGDAAQDIRYPVDVTITNDCHVVVTDAGDRSIKVFDFFGQIKLVIGGQFSLPWGVETTPQNGIVVTDAEAGSLHLLDVDFAEGVLRRTERLQAHLCNPRGVAVSWLTGAIAVLEHPLALGTGVCSTRVKVFSSSMQLVGQVDTFGLSLYFPSKITASAVTFDHQGNVIVADTSGPAILCLGKPEEFPVPKPMVTHGLSHPVALTFTKENSLLVLDTASHSIKVYKVDWG [D146N] |
| decreasing interaction | MAAEASESGPALHELMREAEISLLECKVCFEKFGHRQQRRPRNLSCGHVVCLACVAALAHPRTLALECAFCRRACRGCDTSDCLPVLHLIELLGSALRQSPAAHRAAPSAPGALTCHHTFGGWGTLVNPTGLALCPKTGRVVVVHDGRRRVKIFDSGGGCAHQFGEKGDAAQDIRYPVDVTITNDCHVVVTDAGDRSIKVFDFFGQIKLVIGGQFSLPWGVETTPQNGIVVTDAEAGSLHLLDVDFAEGVLRRTERLQAHLCNPRGVAVSWLTGAIAVLEHPLALGTGVCSTRVKVFSSSMQLVGQVDTFGLSLYFPSKITASAVTFDHQGNVIVADTSGPAILCLGKPEEFPVPKPMVTHGLSHPVALTFTKENSLLVLDTASHSIKVYKVDWG [P69A] |
| disrupting interaction | MAAEASESGPALHELMREAEISLLECKVCFEKFGHRQQRRPRNLSYGHVVCLACVAALAHPRTLALECPFCRRACRGCDTSDCLPVLHLIELLGSALRQSPAAHRAAPSAPGALTCHHTFGGWGTLVNPTGLALCPKTGRVVVVHDGRRRVKIFDSGGGCAHQFGEKGDAAQDIRYPVDVTITNDCHVVVTDAGDRSIKVFDFFGQIKLVIGGQFSLPWGVETTPQNGIVVTDAEAGSLHLLDVDFAEGVLRRTERLQAHLCNPRGVAVSWLTGAIAVLEHPLALGTGVCSTRVKVFSSSMQLVGQVDTFGLSLYFPSKITASAVTFDHQGNVIVADTSGPAILCLGKPEEFPVPKPMVTHGLSHPVALTFTKENSLLVLDTASHSIKVYKVDWG [C46Y] |
